# Measurements published in publication doi:10.1101/2022.07.04.498665 (bioRxiv, 2022).
# Values joined by “and” are separate entries in the source; they are usually repeats but may differ in a detail not shown here. Equal entries are not always repeated.
# B1: Mu8.1 (natural protein)
# chain: GENSDNLTHCRLFEFRLCLLECMSLTLDHCYARCTTVITQIHGSDTNRFDCTIFKTCYYRCYVLGKTEDHCWKGTATSVTGDVGDLEFC
# What was measured:
# SAXS = molecular target: the molecule itself; experiment: SAXS
# SEC = molecular target: the molecule itself; experiment: SEC
protein,measurement,setting,value
B1,stoichiometry N,SAXS,4 and 6
same,stoichiometry N,SEC,2
